Results taken from paper doi:10.1101/2020.07.06.189761.

How the values were obtained:
[1] = target: T1, UM-Pif1 (unmodified Pif1) (Saccharomyces cerevisiae, UniProt P07271 1-859); assay: BLI
T1 sequence: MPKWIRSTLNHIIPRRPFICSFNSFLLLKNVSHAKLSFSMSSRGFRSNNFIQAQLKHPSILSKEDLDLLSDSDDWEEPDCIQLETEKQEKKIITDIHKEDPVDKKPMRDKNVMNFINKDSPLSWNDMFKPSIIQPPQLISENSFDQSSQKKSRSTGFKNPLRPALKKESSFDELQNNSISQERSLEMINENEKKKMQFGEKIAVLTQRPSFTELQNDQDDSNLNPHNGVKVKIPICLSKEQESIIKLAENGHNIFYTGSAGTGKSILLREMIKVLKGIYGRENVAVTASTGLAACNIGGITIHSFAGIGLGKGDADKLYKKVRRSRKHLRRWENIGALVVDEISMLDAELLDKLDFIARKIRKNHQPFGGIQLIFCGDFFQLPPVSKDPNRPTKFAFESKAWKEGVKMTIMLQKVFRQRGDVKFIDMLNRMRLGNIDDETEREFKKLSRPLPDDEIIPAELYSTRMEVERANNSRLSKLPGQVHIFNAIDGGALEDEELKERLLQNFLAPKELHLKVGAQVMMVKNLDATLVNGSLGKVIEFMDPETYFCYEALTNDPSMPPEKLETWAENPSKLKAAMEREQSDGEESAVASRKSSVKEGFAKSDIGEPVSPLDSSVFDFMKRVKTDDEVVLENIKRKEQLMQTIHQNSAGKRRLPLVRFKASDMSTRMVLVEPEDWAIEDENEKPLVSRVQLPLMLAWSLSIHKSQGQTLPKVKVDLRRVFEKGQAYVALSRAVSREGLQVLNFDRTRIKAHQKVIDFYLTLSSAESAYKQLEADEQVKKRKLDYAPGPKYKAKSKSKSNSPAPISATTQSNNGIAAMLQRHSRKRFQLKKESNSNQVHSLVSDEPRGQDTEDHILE

UM-Pif1ΔN (unmodified) = target: T2, UM-Pif1ΔN (unmodified) (Saccharomyces cerevisiae, UniProt P07271 234-859, del1-233); assay: BLI
T2 sequence: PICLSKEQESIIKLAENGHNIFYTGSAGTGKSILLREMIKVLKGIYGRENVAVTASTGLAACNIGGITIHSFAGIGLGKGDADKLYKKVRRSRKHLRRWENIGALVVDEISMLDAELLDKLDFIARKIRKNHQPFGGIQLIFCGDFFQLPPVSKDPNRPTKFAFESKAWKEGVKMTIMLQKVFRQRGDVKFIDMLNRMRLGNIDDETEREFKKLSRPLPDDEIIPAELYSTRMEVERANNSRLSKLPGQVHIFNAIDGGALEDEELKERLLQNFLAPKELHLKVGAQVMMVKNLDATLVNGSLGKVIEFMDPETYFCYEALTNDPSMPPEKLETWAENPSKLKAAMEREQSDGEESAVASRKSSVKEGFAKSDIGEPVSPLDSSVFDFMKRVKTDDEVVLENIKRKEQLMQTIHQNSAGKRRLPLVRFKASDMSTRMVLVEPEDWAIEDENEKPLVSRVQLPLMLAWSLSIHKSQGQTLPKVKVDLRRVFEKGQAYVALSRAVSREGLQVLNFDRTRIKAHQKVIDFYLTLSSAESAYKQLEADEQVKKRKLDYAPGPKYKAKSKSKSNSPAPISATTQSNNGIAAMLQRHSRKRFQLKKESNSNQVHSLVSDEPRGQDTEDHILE

## TTTTTTTTTTTTTTTTTTTTTTTTTGTGTCACTCACATAGCGTTC (ssDNA) [T1 45-nt ssDNA]
[1]
  Kd: 19.1 ± 5.1 nM
UM-Pif1ΔN (unmodified)
  Kd: 14.1 ± 1.5 nM
